Data reported in publication PMC5612097, “Discovery of a microbial transglutaminase enabling highly site-specific labeling of proteins” (The Journal of Biological Chemistry, 2017).
One block for each molecule: values may come before it. Where no end group is shown, it is not given here. The star is where a group is joined. Cbz = O=C(OCc1ccccc1)*

Tests used:
KalbTG = target: T1, KalbTG (Kutzneria viridogrisea, UniProt W5WHY8); experiment: peptide array transamidation, Cy5-streptavidin fluorescence; type: biochemical; details: 50 uM amine donor with 5-mer Gln peptides; 100 mM Tris-HCl, pH 8, 1 mM DTT, 37 °C, 45 min
T1 construct: gene KALB_7456; E. coli; predicted signal peptide removed; N-terminal 2x SlyD (E. coli) chaperone tag with factor Xa site (cut off for some applications), N-terminal MGGGSTTAQAAAVAAPTPR, C-terminal GGGS-His8
T1 sequence (W5WHY8 entry or part of it): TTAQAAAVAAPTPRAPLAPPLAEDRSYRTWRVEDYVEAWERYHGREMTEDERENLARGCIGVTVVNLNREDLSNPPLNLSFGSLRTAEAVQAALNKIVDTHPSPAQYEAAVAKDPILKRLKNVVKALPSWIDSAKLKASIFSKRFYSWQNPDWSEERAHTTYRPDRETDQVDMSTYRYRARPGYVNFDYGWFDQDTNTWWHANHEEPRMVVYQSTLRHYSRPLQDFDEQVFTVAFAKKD

[1] = target: microbial transglutaminase (MTG) from Streptomyces mobaraensis, engineered enzyme from Zedira (Streptomyces mobaraensis) (UniProt P81453)
[2] = target: microbial transglutaminase from Kutzneria albida (KalbTG) (Kutzneria albida DSM 43870)

Molecule: NCCCCCNC(=O)CCCC[C@@H]1SC[C@@H]2NC(=O)N[C@@H]21 [N-(biotinyl)cadaverine]
- peptide array transamidation, Cy5-streptavidin fluorescence (KalbTG): N-(biotinyl)cadaverine (Zedira) was used as a substitute for a Lys substrate to biotinylate Gln peptides

- Km in the GLDH-coupled transglutaminase activity assay (37 °C, peptide 0-1 mM, 1 mM cadaverine as amine donor) [1]: 644 µM
- Km in the GLDH-coupled transglutaminase activity assay (37 °C, peptide 0-1 mM, 1 mM cadaverine as amine donor) [2]: 2150 µM
B1: Z-… (peptide)
peptide: Cbz-GGGYRYRQGGGG

- Km in the GLDH-coupled transglutaminase activity assay (37 °C, peptide 0-1 mM, 1 mM cadaverine as amine donor) [1]: 847 µM
B2: Z-… (peptide)
peptide: Cbz-GGGDYALQGGGG
